According to patent publication US8426179B2, “Synthetic peptide and peptide conjugates and related tissue coupling methods via transglutaminase enzyme” (priority 2007, dated 2013):

Key:
[1] = Hydrolysis of the hydrocortisone prodrugs in solution (buffers); type: physicochemical; conditions: Buffer 1, 4° C.
Method: This solution also contained 2 mM 6α-methyl prednisolone as an internal standard. The samples were then stored at −20° C. until analyzed with RP-HPLC and eluted with a linear gradient of 24-55% acetonitrile in water with 0.1% TFA. The amount of hydrocortisone hydrolyzed from the prodrug was determined by comparing its peak area to that of 6α-methyl prednisolone. […] Thirty microliter samples were collected at 10, 20, 30, and 60 minutes and analyzed as previously described.

[2] = tested on: articular surface of cartilage; assay: Coupling of hydrocortisone prodrugs to the articular surface of cartilage via tTG; type: biochemical, bovine; conditions: 1.0 mM prodrug with tTG, immunohistochemistry and quantification
Method: Modified tissue samples were immersed in tissue freezing media and frozen at −80° C. until use. Tissue slices (25 μm thick) were cut using a cryostat (Microm HM505N, Carl Zeiss) and the freezing media was removed with 3 washes of Buffer 1. Blocking was performed with 4% goat serum in Buffer 1 (blocking buffer) for 1 hour at room temperature. The tissue sections were then incubated with 10 μg/mL mouse anti-hydrocortisone antibody for 1.5 h in the blocking buffer at room temperature, rinsed 3 times with Buffer 1 for 5 minutes each, and then incubated with fluorescein conjugated goat anti-mouse antibody (1/200) in blocking buffer for 1 hour. Samples were rinsed again with Buffer 1 and then imaged using a Leica epifluorescent microscope (λex=495 nm, λem=520 nm for fluorescein) and a SPOT RT digital camera (Diagnostic Instruments, Sterling Heights, Mich.).

In the case of hydrocortisone-GFKG-PEG [TRIP-PC], the T50% of hydrolysis [1] is reported as 57.8 h and the “bound hydrocortisone, TRIP-C compared with TRIP-PC” value [2] is reported as “no detectable difference in bound hydrocortisone”.
